Assay: soluble on expression in E. coli; label from the status in PepcDB or PDB records

Sequence	soluble on expression in E. coli
GPGSMTTLVLCDGSEGSLRSIEVACAGNATPTSSMPSQEGSLLLLHVWDTPATRTSVLHPSVGAEGMYTPRRSVSSAAAAAAQTSADAGGHGGSSMPCADVLTTTLQYIHTNKYLKNKLHYTVETTCASTVFARDNTDHSVLSEAGAAPAGGTAASQAAHGRAGQGQKRASCSAGGAGSARRRSDRRPSQRQIDTAAEISAGSSNNTGDGTAPERQEAPVSIPENEKRAMAVVKYATARAAHHHVTAVLLGVGQRQDGKVCTVGAVAQGVLLELRSLYPLYYVKKDGVKWRPALSTTTTTTAATPRRFTIVVAVPADARWESATAAETRSGNEEAAAQTTASIETPSVAPPQVPIHVQEAVAATVQYVQTRCMRLHAALQVEQITFAVIATSSSQDGNSITEPDRGENGGHVAAGPDASGGKDGSTWISPLEAYKRHLESLPFVECKSIPPANAAAPLLSPVNRINPAAVGETGGIEQHLPEDGAAMMCVEGSATGAPAPRGAASPVAVCVLKASKKNPLLSLDSEPEVALPQIIKQVGSLKPEVLVMPKSLVPESLQLALLATSNPHCIVLPF	soluble
MGSDKIHHHHHHVYRKIKAQDLRPGMYVVDVGLSWLENPYLYMTEGVLADEEAVGRVLSEGYEEAVIDLRRCLEGSVPDDLAELEPLTDAEHVSRAVSATADSPVSAVAQRVPVAQEMLAAKAIYSESITFVRGFMEGAREGRPVDLKAAEPLVEDIIQSVSRNAGALIGFAKLRAYDLYTYTHSLNVSLLAVAFGKYLGLDTVALRQIGLAGLFHDLGKALIPDFILNCPGRLTPEEFSVMKRHPVLGRDVLPGGGRIPDMVLEGMLQHHEKFNGTGYPAGLKGDAISEAGRIIAVVDVYDALTSKRPYKNAMLPNKALSILYSMAGEEFYPGYVEHFIKCIGIYPVGQIVRLNTGQVGVVSATDPAVPLRPEVIVVRDPLGRPAPPRLIRLADVISVSVTETLEAAHAGIDAARVLQDGAAS	not soluble
MGLVTDEVRARAEKYTGDEICREKTKEFLKEVSMPNGLLPLKDIEEVGYDRETGIVWLKQKKSITHKFEAIGKLVSYATEVIAQVEVGKIKKLTGVKAKELLIWVTLNELVLEQPTSSGKINFRTPTGLSRTFPVSAFVVPEVEKPATEKNNGTTEVKEAVAVTDA	not soluble
MSYYHHHHHHLESTSLYKKAGLNNFNLHTPTRILFGKGAIAGLREQIPHDARVLITYGGGSVKKTGVLDQVLDALKGMDVLEFGGIEPNPAYETLMNAVKLVREQKVTFLLAVGGGSVLDGTKFIAAAANYPENIDPWHILQTGGKEIKSAIPMGCVLTLPATGSESNAGAVISRKTTGDKQAFHSAHVQPVFAVLDPVYTYTLPPRQVANGVVDAFVHTVEQYVTKPVDAKIHDRFAEGILLTLIEDGPKALKEPENYDVRANVMWAATQALNGLIGAGVPQDWATHMLGHELTAMHGLDHAQTLAIVLPALWNEKRDTKRAKLLQYAERVWNITEGSDDERIDAAIAATRNFFEQLGVPTHLSDYGLDGSSIPALLKKLEEHGMTQLGENHDITLDVSRRIYEAAR	soluble
MAYVESFYMDASLESDADVLPASESDMFEAQFIADVPLDGDAIIRIVDSQLAFEQRNHVVSDYCTMKAAELEKNPNQLTMNSSVMDNQQYFAPPKSESSQYAWNTNDVVSSHHQYAAQSPNIYTNDYHTSEPSDYAYI	not soluble
MASSLNEDPEGSRITYVKGDLFACPKTDSLAHCISEDCRMGAGIAVLFKKKFGGVQELLNQQKKSGEVAVLKRDGRYIYYLDWMWSLEHHHHHH	not soluble
MNTDTFMCSSDEKQTRSPLSLYSEYQRMEIEFRAPHIMPTSHWHGQVEVNVPFDGDVEYLINNEKVNINQGHITLFWACTPHQLTDTGTCQSMAIFNLPMHLFLSWPLDKDLINHVTHGMVIKSLATQQLSPFEVRRWQQELNSPNEQIRQLAIDEIGLMLKRFSLSGWEPILVNKTSRTHKNSVSRHAQFYVSQMLGFIAENYDQALTINDVAEHVKLNANYAMGIFQRVMQLTMKQYITAMRINHVRALLSDTDKSILDIALTAGFRSSSRFYSTFGKYVGMSPQQYRKLSQQRRQTFPG	soluble
MKDTLMSIQIIPKTPNNDNVIPYVDEAIKIIDESGMHFRVGPLETTVQGNMNECLILIQSLNERMVELECPSIISQVKFYHVPDGITIETLTEKYDELEHHHHHH	soluble
SLDSKTTVNINIPSGSSVSAIASILKKNDVIKSEKAFQYYVKYKGASGFQAGFYHLNKGMDLDAIIQKLTSGATGYAFQITVTEGAQLTQIAAAIADETKYSKKQVIAKLDDETFINQLKKEFPDTVTNDVFNKNIKHPLEGYLFPATYPFNDPDTSLEDIIKAMIKQTNSYVETYKSEMKKNKVSVHKLLTMASLIEEEATEKADRHKIASVFYNRLKKKMPLQTDPTVLYAAGKHKDRVLYKDLEIDSPYNTYKNTGLTPGPIANAGMSSWEAALHPDKTDYLYFLAKSNGEVVFTKTLKEHNKAKEKYISSKNEK	soluble
KDFTWNTGVTYSMNKNKILTLADNAINPITREKFSISSLNMGGLGSTRFILKEGGSMGDIYSLMDLKRDANGAVYIDENNSVVTESLEANNYIKLGSVLPKGNLAWRNNFSWKNINVAFLVSARLGGVVFSRTQAVLDNFGVSEASAAARDKGYVSVNGNDRVNPEGWYSVVAGGTAVPQYYIYSATNIRLQEASIGYTIPRKWLGNVCDIKVSLIGRNLWMIYNKAPFDPESVASTDNFYQGIDYFMMPSLRNIGFNLSFKF	not soluble
MGMELILREWMGKEKDYSISYSTYMNLVLYTEGHGYYMKEREKIGRQGDFFTSSNVSSVFAKTFAKLFIRLVENGEVASNICEVGGGTGKFAYDVLQEWKQLSPNTFINLNYSMIEVSPFHRKLQQEQLGSFSNVSYYTSYSEMGDSFEGILFSNELFDAFPVEVIEKRNGILYEVRITYTEEGNLSEVCRPLNKRIGRYLLKYNIHIAEGQRFEVPIVMEEYIKEISKWFQKGICITVDYGYTKEEWMHPAHREGSLRGYYQHKLMRNPLAHPGEMDLTTHVHWDELKEMFSMQGMSAVWHKKQSEFLLAAGILEQLTSHQDTNPFSETQKQNRAVRSMILNGGVGSSFDVVIHTKDMQHLHLDQYVTILEHHHHHH	soluble
MAHHHHHHMAERKVLNKYIPPDFDPDKLMESKKLLKKIEKRKNRNQNKTKKKLMNIRMMYPFTLKCNKCKTFTYVGTKFNSRVEKLKDETYLNIPIWKFYGKCQECKNEIIFKTDPKNGDYLLIAGGTRTYDAHKEQELADDYYRNSNVKDEDKIKNTEKQSYNAMLELKMNEQLEELQNMNKRHLDKFSSINKALNRLYEKSELENKENNFFMNNLDSEDEKAFFSLLNKSRSSKDHIGDNLNKYNPSNNNWVNKNIEKDNIIIEEVELDDNKNNNDEVNEYISEGEGEHSDGNNINEVNESFSDLLLKKKKNRYEKENTVKIKQGNIDTEDKPKDNQQDKTNNISFKNTISNNSSSFSNIIHKPMFNKINKETNFNFVIKKKENFQSLLSEYNSDNSNESDN	not soluble
MPLVQMKDILMKANQENYGVGAFSVTNMEMVMGAIKAAEELSSPLILQIAEVRLNHSPIHMIGPLMVAAAKQATVPVAVHFDHGMTFEKIQETLEIGFSSVMFDGSHYPLEENIQKTKEIVELAKQYGATVEAEIGRVGGSEDGSEDIEMLLTSTTEAKRFAEETDVDALAVAIGNAHGMYNGDPNLRLDRLQEINDVVHIPLVLHGGSGISPEDFKQCIQHGVRKINVATATFQNVITAVNNTVLNTPYSDYFTYHQDVIKAAYENVKSHMQIFGSENRA	not soluble
MGSDKIHHHHHHMRAFVFPGQGSQYSGMAKDFSVYESSKEIFERSKKVLGFDITEIMNGDEETLKLTENAQPSIYITSYIAFLELEKRGILPDVVAGHSLGEYTALAVAGVYDFETGLYLVRKRGEYMSKALEPGKGTMAAVIGLNIETIEEVVNSIEGVYIANYNSHDQVVISGLKESVEKAMEILKEKGARRVVELMVSSPFHTPFLEYAREKMKEEVEKVDFKKPRWPIVMNSTAKPTENPEEIKRNIIEQITGPVLWKQSVDTMKKMGVTEFVEVGPKTVLKNLCRRMGANAKHFTEILSE	not soluble
GSHMLPSCKEDEYPVGSECCPKCSPGYRVKEACGELTGTVCEPCPPGTYIAHLNGLSKCLQCQMCDPAMGLRASRNCSRTENAVCGCSPGHFCIVQDGDHCAACRAYA	soluble
MYAMKEEDCLQTFHNLQDYQDQFHLHHHPQILPWSSTSLPSFDPLHFPSNPTRYSDPVHYFNRRASSSSSSFDYNDGFVSPPPSMDHPQNHLRILSEALGPIMRRGSSFGFDGEIMGKLSAQEVMDAKALAASKSHSEAERRRRERINTHLAKLRSILPNTTKTDKASLLAEVIQHMKELKRQTSQITDTYQVPTECDDLTVDSSYNDEEGNLVIRASFCCQDRTDLMHDVINALKSLRLRTLKAEIATVGGRVKNILFLSREYDDEEDHDSYRRNFDGDDVEDYDEERMMNNRVSSIEEALKAVIEKCVHNNDESNDNNNLEKSSSGGIKRQRTSKMVNRCYN	soluble
MGALESLRGNADLAYILSMEPCGHCLIINNVNFCRESGLRTRTGSNIDCEKLRRRFSSLHFMVEVKGDLTAKKMVLALLELARQDHGALDCCVVVILSHGCQASHLQFPGAVYGTDGCPVSVEKIVNIFNGTSCPSLGGKPKLFFIQACGGEQKDHGFEVASTSPEDESPGSNPEPDATPFQEGLRTFDQLDAISSLPTPSDIFVSYSTFPGFVSWRDPKSGSWYVETLDDIFEQWAHSEDLQSLLLRVANAVSVKGIYKQMPGCFNFLRKKLFFKTSHHHHHH	soluble
MAHHHHHHMSAAAADYPLRRGGDVEDDVDDEERRRLTESSIKAFLEEEGVPVRSSVTVEDITSALVALANSVATASACLAVKVALLRLDCLTAVEGELRKDATRASSSKVRVTAEKSPSPRMTRASAFGWLRHLHQEGKGVCGVLRGGKAELGFVLASFVEEALLFAAMRSLMDRLGPLLPSENGRAGGAAALWWAGLSRTVAPTFVMSLLSWPLRAVRTTIRVNYMADTSLPVCEPSLQPAQQQGEQQQRRQHRYTSATEVWGCVLHRMGVRSLLLNGLDVDFASRALSLGLAWTVVKPASRWMQRWAMMSASTAGAASAPLALVRLGQHRLFALGVLLAVAGSVNALQRPFVVLRQRMALLPVADAESVCNGDDDQTKTPPTARRGCRYANGWDCAVQVWRQEGVSGLLAGLPLCLITSSVVPLLRTFAGYPTAPSFSGAVV	not soluble
MFRSSLTHLQAVSRVFIMGGHITPFVGKGSKLFIDKKHPDFGKKQNMTLEEILATTVQHTIENTGLNGKEDIVDQVVVGNFLGELFSSQGHLGPAAIGSLTYGQAGAKNPLMYKPAMRVEGACASGGLAVVSATNALKAGSADIALAVGVEVQTTATARVGGDYLARAADYQRQRKLDDFTFPCLFAKRMKYIAEHNHFTMEDTARVAAKAYANGNRNPLAHMHTRKLSFEQCNGEDPSNVKFLGNETYKEYLRMTDCSQVSDGGAGVVLANEEGLKKMGLSPNDSRLVEIKSIACAVSNLYEDPDDACCMFTSRQAAQKALSMANVKPSDLNVAEVHDCFTIAEMLMYEALGIAEYGHAKDLIRNGETTLEGRIPVNTGGGLLSFGHPVGATGIKQVMEVYRQMKGQCGAYQMKKIPALGATLNMGGDDKTAVSAVLQNI	not soluble
MNELVSAFHIERANGKVNGDVVAVEPAKTVNQDAADDEVEIKLNVDNYQMLRSDSQGSLNSHGRSNSRLGRLFRSKHEMKKRETRADENRGEIEIQIDFDDLVNQLKIALIRCRDLMTFDKKDQCNPYVSVKLVALDGNKEVFKKKTPTAKNTRHPHFDNHVEIDINPSDLLNHKVVINVKDDTNYGTFVAKPVLGCLEIRLDSLMNRQLSQRWIPLSVERK	not soluble
